Laboratory results reported in the nanobody polyreactivity screen of Harvey et al. (2022).

Experiment: yeast display, Sf9 membrane polyspecificity reagent, FACS + sequencing; frameworks hold sequencing errors
How it was run: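 Sorting gates, low and high (top ~1%), were placed on anti-HA fluorescence to track expression and on streptavidin fluorescence to track reagent binding. A clone's polyreactivity label is taken from the gate it came out of. The reagent was 10% biotinylated, detergent-solubilized Sf9 membrane, applied for 1 hour at 4 °C to galactose-induced yeast display cells.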

Sequence	polyreactivity (PSR sort gate)
QVQLVESGGGLVQAGGSLRLSCAASGSTSSNNAMGWYRQAPGKERELVADISTNGDSTSYADSVKGRFTISRDNAKNTVYLQMNSLKPEDTAVYYCAASTYVTYWEYDFWGQGTQVTVSS	low polyreactivity
QVQLVESGGGLVQAGGSLRLSCAASGTFQSNAMGRYRPAPGKERELVAAITSGGSTNYADSVKGRFTISRDNAKNTVYLQMNSLKPEDTAVYYCAAVRRYRASRGSLYYYWGLGTQVTVSS	high polyreactivity
QVQLVESGGGLVQAGGSLRLSCAASGSIFFNNAMGWYRQAPGKERELVAAITTGGSTYYADSVKGRFTISRDNAKNTVYLQMNSLKPEDTAVYYCAAVVVYPYRLGYDYWGQGTQVTVSS	low polyreactivity
QVQLVESGGGLVQAGGSLRLSCAASGFIFTDYAMGWYRQAPGKEREFVAAIDWSGGNTYYADSVKGRFTISRDHAKNTVYLQMNRLKPEDTAVYYCNAGDYFVRFVYYWDDERYDYWGQGTQVTVSS	low polyreactivity
QVQLVESGGGLVQAGGSLRLSCAASGSTFRKYAMGWYRHAPGKEREFVAAITWSTGTTYYADSVKGRFTISRDHAKNTVYLQMNSLKPEDTAVYDCAADSQPPHELYESIEHESWGQGTQVTVSS	low polyreactivity
QVQLVESGGGLVQAGGSLRLSCAASGSTFYTNAMGWYRPAPGKERELVAAISASVGSTYYADSVKGRFTISRDNAKNTVYLQMNSLKPEDTAVYYCAADVWASRRYDYWGQGTQVTVSS	low polyreactivity
QVQLVESGGGLVQAGGSLRLSCAASGRTFGGYVMGWYRQAPGKERELVATITYSGGSTHYADSVKGRFTISRDNAKNTVYLQINSLKPEDTAVYYCARRRSYRYPSEYNYWGQGTQVTVSS	high polyreactivity
QLQLVESGGGLVQAGASLRLSCADSRRIFDYNVMGRYIQAPGKEREVVADINGSGGGTNYEDSVKGRFTISRDNAKNTVYLQMNILKPEDTAVYYCNADSYEYHVPYYDYRYDYWGQGTQVTVSS	low polyreactivity
QVQLVESGGGLVQAGGSLRLSCAASGLTFYGNAMGWYRQAPGKERELVAAITSNGGSTYYADSVKGRFTISRDNAKNTVYLQMISLKPEDTAVYYCNVDTGYDYWYPGYGYWGQGTQVTVSS	low polyreactivity
QVQLVDSGGGLYQAGGSLSLTCAASGSIFDFNAMGWYRQAPGKERELVAAISGSGARTYYADSVKGRFTIARDNAKHTVYLQLNSLKPEDTAVYLCARPYVYGYDSWGQGTQVTFSS	high polyreactivity
QVQLVESGGGLVQAGGSLRLSCAASGSIFRYYAMGWYRQAPGKERELVATITFNGGNTYYADSVKGRFTISRDNAKNTVYLQMNSLKPEDTAVYYCAATYVRRGPTRYYYWGQGTQVTVSS	high polyreactivity
QVQLVESGGGLVQAGGSLRLSCAASGSIFAKYAMGWYRQAPGKERELVAAITSGGSTNYADSVKGRFTISRDNAKNTVYLQMTSLKPEDTAVYYCAARNHYRGYYWGQGTHVTVSS	low polyreactivity
QVQHVESGARLVQAGGSLRLSCAASGSTFYRNTMGWYRQAPGTERELVAAISSGGSTNYADSVTGRFTISRDNAKNTVYLQMNSLKPEDTGVYYCAAAIRVISDGWYYYWYDYWGQGTPVTVSS	high polyreactivity
QVQLVESGGGLVQAGGSLRLSCAASGFTFGRYAMGWYRPAPGKERELVPAISFSGGRTYYADSVKGRFTISRDNAKNTVYLQMNCMKPEDTAVYYCAARRSEEHVGRSTYARYDYWGQGTQVTVSS	high polyreactivity
QVQLVESGGGLVQAGGSLRLSCAASGLTFGGNAMGWYRQAPGKERELVAAISWSDDTTDYADSVKGRFTISRDNGKYTVYLQMNSLKPEDTAVYYCAARLPFEHVDYWGQGTQVTVSS	low polyreactivity
QVQLVESGGGLVQAGGSLRLSCAASGFTFRSNAMGWYRQAPGKERELVAAISSNGGRTYYADSVKGRFTISRDNAKNTVYLQMNSLKPEDTAVYYCAARGGYSQKRHDSWGQGTQVTVSS	high polyreactivity
QLQLVESGGGLVQAGGSLRLSCADSGSTFRYNVMGWYRQAPGNETQLVAAIRDSGDRTYYADSVKGRFTISRDNAKNTVYLQMNSLKPEDTAVYYCNARWQEPLKYDYWGQGTQVTVSS	low polyreactivity
QVQLVESGGGLVQAGGSLRLSCAASGSTFRYNTMGWYRQAPGKERELVAAISTSGGTTYYADSVKGRFTISRDNAKNTVYLQMNSLKPEDTAVYYCAARPFPRRWYGAEDYYWGQGTQVTVSS	high polyreactivity
QVQLVETVRGLVQAGGSLRITCAASGRIYAYYSMGWYRQPPGKERELVAAITRSGGSTYYADSVKGRFTNSRDIAKYTVYIQMISLKPEDNAVYYCAPSLNVPYATMNYWGQGTQVTVSA	high polyreactivity
QVQLVESGGGLVQAGGSLRLSCPASGFTFVSYAMGWYRQAPGKERELVAAISRSGGTTYYADSVKGRFTISRDNAKNTVYLQMNSLKPEDTAVYYCAADFYVFYTRYYYWGQGTQVTVSS	low polyreactivity
QVQLVESGGGLVQAGGSLRLSCAASGFTFFSNAMGWYREAPGQERELVASITNDGSTYADSVKGRFTISRDNAKNTVYLQMNSLKPEDTAVYYCAARFPQWRYSRRTCERFDYWGQGTQVTVSS	low polyreactivity
QVQLVESGGGLVQAGGSLRLSCAASGFIFRYYAMGWYIQAPWKERELVAAIRRGRSTYYADSVKGRFTISRDNAKYTVYLQMNSLKPEDTAVDYCAVRLVSRFGISSYDYWGQGTQVTVSS	high polyreactivity

Sequence	polyreactivity (PSR sort gate)
QVQLVESGGGLVQAGGSLRLSCAASGRIYWLYAMGWYRQAPGKERELVAAITGIGGSTYYADSVKVRFTISRDNAKNTVYLQMNSLKPEDTAVYYCAARNPASTAWMNYWGQGTQVNVSS	low polyreactivity
QVQLVESGGGLVQAGGSLRLSCAASGRIFRFYAMGWYRKAPGKERELVAAISSSGVRTYYADSVKGRFTISRDNAKNTVYLQMNSLKPEDTAVYYCAKRTVWWSNWHYYPPTYNYWGQGTQVTVSS	high polyreactivity
QLQHVESGGGLVQAGGRLRLSCAASGFTFYYYAMGWYRPEPGKERELVAAISSTGGSTYYADSVKGRFTISRDNAKNTVYLQMNSMKPEDTAVYYCNAACYRYPGDYDYWGQGTQVTVSS	high polyreactivity
QVQLVESGGGLVQAGVSLRLSCAASGSTFGWYAMGWYRQAPGKERELVAAISASGGSTYYADSVKGRFTISRDNAKNNVYLQMNSLKPEDTAVYYCAVRAWKFLTRYDYWGQGTKVTVSS	high polyreactivity
QVQLEESAGRLVQAGGSLRLSCAASGFIISPYAMGWYRQAPGKERELVAAISWSGVYTYYADTVKGRFTISRDNAKNTVYLQMNSLKPEDSAVYYCATYGTVYYWGQGTQVTVST	high polyreactivity
QVQLVDTGGGLVQAGGSLRLSCAASGLTIYGNAMGWSRQAPGKERELVAAISSSGGTTYYADSVKGRFTISRDNSKNTVYLQMNSLKPEDTAVYYCAARPSGGYESTRTRDYWGQGTQVTLSS	low polyreactivity
QVQLVESGGGLVQAGGSLRLSCAASGRIFWYYAMGWYRQAPGKEWELVATITYSGVRTYYADSVKGRFTISRDNAKNTVYLQMNSLKPEDTAVYYCAAVPGASVYGYYWKFGYWGQGTQVTVSS	high polyreactivity
QVQLVESGGGLVQAGGSLRLSCAASGIIFQDNAMGWYRQAPGKERELVATIDRGGDTYYADSVKGRFTISRDNAKNTVYLQMNSLKPEDTAVYYCAAVEFELRGDYWGQGTQVTVSS	low polyreactivity
QVQLVESGGGLVQAGGSLRLSCAASGSIFDRNAMGWYRQAPGIERELVAAITSRGGSTYYADSVKGRFTISRDNAKNTVYLQMNSLKPEDTAVYYCAARYSSRGTYPRRYDYWGQGTQVTVSS	high polyreactivity
QVQLEESGGGLVQAGGSLRLSCAASGSIFGYNAMGWYRQAPGKERELVAAINVDGGRTYYADSVKGRFTISRDNAKNTVYLQMNSLTPEDTAVFYCAAAYRLQVGRREYWGQGTQVTVSS	high polyreactivity
QVQLVESGGGLVQAGGSLRLSCAASGFTFFPYAMGWYRQAPGKEREFVAANFSDGSTYYADSVKGRFTISRDNAKNTVYLQINILKPEDTAVYYWAAAWYEQAYQTGYFEFDYWGLGTQVTVSS	low polyreactivity
QVQLVESGGGLVQAGGSLRLSCAASGSIFSPYAMGWYRQAPGKERELVAAISFRASTTYYADSVKGRFTISRDNAKNTVYLQMNSLKPEDTAVYYCSASALYSWFWGLYDYWGQGTQVTVSS	low polyreactivity
QVQLVESGGGLVQAGGSLRLRCAASGFTFTAYAMGWYRQAPGKERELVAAITWRDGITYYADSVKGRFTISRDNAKNTVYLQMNSLKPEDTADYYCAASWSTEYYWGQGTQVTVSS	high polyreactivity
QVQLVESGGGLFQEGGSLRLSCAASGSTFSVNAMGWYRQAPGKERELVAAISKRVGSTYYADSVKGRFTISRDNAKNTVYLQMNSLKPEDTAVYYCAAVIVHYGRAYDYWGQGTQVTVSS	high polyreactivity
QDQLVESGGGLVQAGGSLSLSCAASGSIFGKYTMGWYRQAPGKERELVAGITYRAGSTYYADSVKGRFTISRDNAKITVYLQMNSLKPEDTAVYYCAARFYFRWYYYGSYANYWGQGTQVTVSS	high polyreactivity
QVQLVESAGGLVQAGGSLRLSCAASGRTFTDYVMGWYRQAPGKESELVAAITSGGGTTYYADSVKGRFTISRDNAKKTVYLQMNSLKPEDTAVYYGNAVSYRRSRYWGYVYWGQGTQVTVSS	high polyreactivity
QVQLVESGGGLVQAGGSLRLSCAATGNTFLWYARGWYRQAPGKERELVAAITWSGGRTYYADSVKGRFTISRDNALYTVYLQMHSLKPEDTAVYYFAADYGYFLGGVYFHKVKFDYWGQGTQVTVSS	high polyreactivity
QVQLVESGGGLVQAGGSLRLSCAASGSIFEGYSMGWYRQAPAKERELVARITSDDDSTYYADSVKGRFTISRDNAKNTVYLQMNSLKPEDSAVYYCNADYYWTSLAMDSWGQGTQVTVSS	low polyreactivity
QVLLVESGGGLVQAAGSLRLSCAASGSISIGYTMGWYIQAPGKERELVATISWSGGNTYYADSVKWRFTISRDNAKNTVYLQMNRLKPEDTAVYYCAAKSSTRGDYWGQGTQVTVSS	low polyreactivity
QVQLVESGGGLVQAGGSLRLSCAASGRNFPVNAMGWYRQAPGKERELVAAISTTGARTYYADSVKGRFTISRDNAKNTVYLQMNSLKPEDTAVYYCAAKQFSVTLSNYWGQGTQVTVSS	low polyreactivity
QVQLVESGGGLVQAGGSLRLSCDASGRIFSVYAMGWYRQEPGKEREFVSAISRGGSTNYADSVNGRFTISRDNAKYTVYLQKNSLKPEDTAVYYWGASSLPNYYYRHYYLYEYWGQGTQVTVSS	low polyreactivity
